Source: US10941182 (Amgen, dated 2021)
Starred links: 1 amine or outer side, 2 acyl side, 3 side chain; linkers in the order of their positions; H or OH if unused. Non-standard residues stand in square brackets, D forms with d. *: point of attachment. dBip = N[C@H](Cc1ccc(-c2ccccc2)cc1)C(=O)O; Oic = O=C(O)[C@@H]1C[C@@H]2CCCC[C@@H]2N1; Phe(4-I) = N[C@@H](Cc1ccc(I)cc1)C(=O)O; γGlu = O=C(O)[C@H](CCC(=O)[*:2])N[*:1]; Tridecanoyl = CCCCCCCCCCCCC(=O)*; hArg = N=C(N)NCCCC[C@H](N)C(=O)O; Cha = N[C@@H](CC1CCCCC1)C(=O)O; NMeL = CN[C@@H](CC(C)C)C(=O)O; Tle = CC(C)(C)[C@H](N)C(=O)O; AEEA = NCCOCCOCC(=O)O; BLeu = β-leucine; βAla = NCCC(=O)O

B1: apelin polypeptide SEQ ID NO: 201 (peptide)
peptide: Tridecanoyl-[γGlu][AEEA][AEEA][hArg][dQ][hArg]P[dR][NMeL]S[Tle]KG[Oic][Phe(4-I)]P[dBip]-OH
SMILES: CCCCCCCCCCCCC(=O)N[C@@H](CCC(=O)NCCOCCOCC(=O)NCCOCCOCC(=O)N[C@@H](CCCCNC(=N)N)C(=O)N[C@H](CCC(N)=O)C(=O)N[C@@H](CCCCNC(=N)N)C(=O)N1CCC[C@H]1C(=O)N[C@H](CCCNC(=N)N)C(=O)N(C)[C@@H](CC(C)C)C(=O)N[C@@H](CO)C(=O)N[C@H](C(=O)N[C@@H](CCCCN)C(=O)NCC(=O)N1[C@H](C(=O)N[C@@H](Cc2ccc(I)cc2)C(=O)N2CCC[C@H]2C(=O)N[C@H](Cc2ccc(-c3ccccc3)cc2)C(=O)O)C[C@@H]2CCCC[C@@H]21)C(C)(C)C)C(=O)O
B2: apelin polypeptide SEQ ID NO: 215 (peptide)
peptide: Tridecanoyl-[γGlu][AEEA][AEEA][dR]QRP[dR][Cha]SHKG[Oic][Phe(4-I)]P[dBip]-OH
SMILES: CCCCCCCCCCCCC(=O)N[C@@H](CCC(=O)NCCOCCOCC(=O)NCCOCCOCC(=O)N[C@H](CCCNC(=N)N)C(=O)N[C@@H](CCC(N)=O)C(=O)N[C@@H](CCCNC(=N)N)C(=O)N1CCC[C@H]1C(=O)N[C@H](CCCNC(=N)N)C(=O)N[C@@H](CC1CCCCC1)C(=O)N[C@@H](CO)C(=O)N[C@@H](Cc1c[nH]cn1)C(=O)N[C@@H](CCCCN)C(=O)NCC(=O)N1[C@H](C(=O)N[C@@H](Cc2ccc(I)cc2)C(=O)N2CCC[C@H]2C(=O)N[C@H](Cc2ccc(-c3ccccc3)cc2)C(=O)O)C[C@@H]2CCCC[C@@H]21)C(=O)O
B3: apelin polypeptide SEQ ID NO: 208 (peptide)
peptide: Tridecanoyl-[γGlu][AEEA][AEEA][hArg][dQ][hArg]P[dR][NMeL][βAla]HKG[Oic][Phe(4-I)]P[dBip]-OH
SMILES: CCCCCCCCCCCCC(=O)N[C@@H](CCC(=O)NCCOCCOCC(=O)NCCOCCOCC(=O)N[C@@H](CCCCNC(=N)N)C(=O)N[C@H](CCC(N)=O)C(=O)N[C@@H](CCCCNC(=N)N)C(=O)N1CCC[C@H]1C(=O)N[C@H](CCCNC(=N)N)C(=O)N(C)[C@@H](CC(C)C)C(=O)NCCC(=O)N[C@@H](Cc1c[nH]cn1)C(=O)N[C@@H](CCCCN)C(=O)NCC(=O)N1[C@H](C(=O)N[C@@H](Cc2ccc(I)cc2)C(=O)N2CCC[C@H]2C(=O)N[C@H](Cc2ccc(-c3ccccc3)cc2)C(=O)O)C[C@@H]2CCCC[C@@H]21)C(=O)O
B4: apelin polypeptide SEQ ID NO: 174 (peptide)
peptide: Tridecanoyl-[γGlu][AEEA][AEEA][hArg][dQ][hArg]P[dR][NMeL]SHKG[Oic][Phe(4-I)][dBip]-OH
SMILES: CCCCCCCCCCCCC(=O)N[C@@H](CCC(=O)NCCOCCOCC(=O)NCCOCCOCC(=O)N[C@@H](CCCCNC(=N)N)C(=O)N[C@H](CCC(N)=O)C(=O)N[C@@H](CCCCNC(=N)N)C(=O)N1CCC[C@H]1C(=O)N[C@H](CCCNC(=N)N)C(=O)N(C)[C@@H](CC(C)C)C(=O)N[C@@H](CO)C(=O)N[C@@H](Cc1c[nH]cn1)C(=O)N[C@@H](CCCCN)C(=O)NCC(=O)N1[C@H](C(=O)N[C@@H](Cc2ccc(I)cc2)C(=O)N[C@H](Cc2ccc(-c3ccccc3)cc2)C(=O)O)C[C@@H]2CCCC[C@@H]21)C(=O)O
B5: apelin polypeptide SEQ ID NO: 211 (peptide)
peptide: Tridecanoyl-[γGlu][AEEA][AEEA]RQRP[dR][NMeL]SHKG[Oic][Phe(4-I)]P[dBip]-OH
SMILES: CCCCCCCCCCCCC(=O)N[C@@H](CCC(=O)NCCOCCOCC(=O)NCCOCCOCC(=O)N[C@@H](CCCNC(=N)N)C(=O)N[C@@H](CCC(N)=O)C(=O)N[C@@H](CCCNC(=N)N)C(=O)N1CCC[C@H]1C(=O)N[C@H](CCCNC(=N)N)C(=O)N(C)[C@@H](CC(C)C)C(=O)N[C@@H](CO)C(=O)N[C@@H](Cc1c[nH]cn1)C(=O)N[C@@H](CCCCN)C(=O)NCC(=O)N1[C@H](C(=O)N[C@@H](Cc2ccc(I)cc2)C(=O)N2CCC[C@H]2C(=O)N[C@H](Cc2ccc(-c3ccccc3)cc2)C(=O)O)C[C@@H]2CCCC[C@@H]21)C(=O)O
B6: apelin polypeptide SEQ ID NO: 199 (peptide)
peptide: Tridecanoyl-[γGlu][AEEA][AEEA][hArg][dQ][hArg]P[dR][NMeL]SAKG[Oic][Phe(4-I)]P[dBip]-OH
SMILES: CCCCCCCCCCCCC(=O)N[C@@H](CCC(=O)NCCOCCOCC(=O)NCCOCCOCC(=O)N[C@@H](CCCCNC(=N)N)C(=O)N[C@H](CCC(N)=O)C(=O)N[C@@H](CCCCNC(=N)N)C(=O)N1CCC[C@H]1C(=O)N[C@H](CCCNC(=N)N)C(=O)N(C)[C@@H](CC(C)C)C(=O)N[C@@H](CO)C(=O)N[C@@H](C)C(=O)N[C@@H](CCCCN)C(=O)NCC(=O)N1[C@H](C(=O)N[C@@H](Cc2ccc(I)cc2)C(=O)N2CCC[C@H]2C(=O)N[C@H](Cc2ccc(-c3ccccc3)cc2)C(=O)O)C[C@@H]2CCCC[C@@H]21)C(=O)O
B7: apelin polypeptide SEQ ID NO: 16 (peptide)
peptide: Ac-[hArg][dR]Q[hArg]P[dR][NMeL]SHKG[Oic][Phe(4-I)]P[dBip]-OH
SMILES: CC(=O)N[C@@H](CCCCNC(=N)N)C(=O)N[C@H](CCCNC(=N)N)C(=O)N[C@@H](CCC(N)=O)C(=O)N[C@@H](CCCCNC(=N)N)C(=O)N1CCC[C@H]1C(=O)N[C@H](CCCNC(=N)N)C(=O)N(C)[C@@H](CC(C)C)C(=O)N[C@@H](CO)C(=O)N[C@@H](Cc1c[nH]cn1)C(=O)N[C@@H](CCCCN)C(=O)NCC(=O)N1[C@H](C(=O)N[C@@H](Cc2ccc(I)cc2)C(=O)N2CCC[C@H]2C(=O)N[C@H](Cc2ccc(-c3ccccc3)cc2)C(=O)O)C[C@@H]2CCCC[C@@H]21
B8: apelin polypeptide SEQ ID NO: 214 (peptide)
peptide: Tridecanoyl-[γGlu][AEEA][AEEA]RQRP[hArg][Cha]SHKG[Oic][Phe(4-I)]P[dBip]-OH
SMILES: CCCCCCCCCCCCC(=O)N[C@@H](CCC(=O)NCCOCCOCC(=O)NCCOCCOCC(=O)N[C@@H](CCCNC(=N)N)C(=O)N[C@@H](CCC(N)=O)C(=O)N[C@@H](CCCNC(=N)N)C(=O)N1CCC[C@H]1C(=O)N[C@@H](CCCCNC(=N)N)C(=O)N[C@@H](CC1CCCCC1)C(=O)N[C@@H](CO)C(=O)N[C@@H](Cc1c[nH]cn1)C(=O)N[C@@H](CCCCN)C(=O)NCC(=O)N1[C@H](C(=O)N[C@@H](Cc2ccc(I)cc2)C(=O)N2CCC[C@H]2C(=O)N[C@H](Cc2ccc(-c3ccccc3)cc2)C(=O)O)C[C@@H]2CCCC[C@@H]21)C(=O)O
B9: apelin polypeptide SEQ ID NO: 180 (peptide)
peptide: Tridecanoyl-[γGlu][AEEA][AEEA][hArg][dQ][hArg]P[dR][BLeu]SHKG[Oic][Phe(4-I)]P[dBip]-OH
B10: apelin polypeptide SEQ ID NO: 175 (peptide)
peptide: Tridecanoyl-[γGlu][AEEA][AEEA][hArg]Q[dR]P[dR][NMeL]SHKG[Oic][Phe(4-I)][dBip]-OH
SMILES: CCCCCCCCCCCCC(=O)N[C@@H](CCC(=O)NCCOCCOCC(=O)NCCOCCOCC(=O)N[C@@H](CCCCNC(=N)N)C(=O)N[C@@H](CCC(N)=O)C(=O)N[C@H](CCCNC(=N)N)C(=O)N1CCC[C@H]1C(=O)N[C@H](CCCNC(=N)N)C(=O)N(C)[C@@H](CC(C)C)C(=O)N[C@@H](CO)C(=O)N[C@@H](Cc1c[nH]cn1)C(=O)N[C@@H](CCCCN)C(=O)NCC(=O)N1[C@H](C(=O)N[C@@H](Cc2ccc(I)cc2)C(=O)N[C@H](Cc2ccc(-c3ccccc3)cc2)C(=O)O)C[C@@H]2CCCC[C@@H]21)C(=O)O
B11: apelin polypeptide SEQ ID NO: 213 (peptide)
peptide: Tridecanoyl-[γGlu][AEEA][AEEA][dR]QRP[hArg][NMeL]SHKG[Oic][Phe(4-I)]P[dBip]-OH
SMILES: CCCCCCCCCCCCC(=O)N[C@@H](CCC(=O)NCCOCCOCC(=O)NCCOCCOCC(=O)N[C@H](CCCNC(=N)N)C(=O)N[C@@H](CCC(N)=O)C(=O)N[C@@H](CCCNC(=N)N)C(=O)N1CCC[C@H]1C(=O)N[C@@H](CCCCNC(=N)N)C(=O)N(C)[C@@H](CC(C)C)C(=O)N[C@@H](CO)C(=O)N[C@@H](Cc1c[nH]cn1)C(=O)N[C@@H](CCCCN)C(=O)NCC(=O)N1[C@H](C(=O)N[C@@H](Cc2ccc(I)cc2)C(=O)N2CCC[C@H]2C(=O)N[C@H](Cc2ccc(-c3ccccc3)cc2)C(=O)O)C[C@@H]2CCCC[C@@H]21)C(=O)O

Target: T1, human APJ receptor (human, UniProt P35414 1-380)
T1 sequence (looked up): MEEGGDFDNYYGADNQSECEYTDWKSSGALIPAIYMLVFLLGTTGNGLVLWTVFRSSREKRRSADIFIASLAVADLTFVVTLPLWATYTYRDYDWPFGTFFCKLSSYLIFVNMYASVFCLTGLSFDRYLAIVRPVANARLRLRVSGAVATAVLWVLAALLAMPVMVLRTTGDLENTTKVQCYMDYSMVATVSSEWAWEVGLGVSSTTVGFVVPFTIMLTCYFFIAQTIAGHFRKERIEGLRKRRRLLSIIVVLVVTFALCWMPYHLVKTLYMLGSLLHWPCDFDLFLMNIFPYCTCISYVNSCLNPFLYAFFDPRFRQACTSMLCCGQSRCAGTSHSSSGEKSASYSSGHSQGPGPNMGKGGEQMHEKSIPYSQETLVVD
Experiment: cell-based or functional assay

EC50 Human APJ Receptor	Binder
49.4 nM	B1
8.42 nM	B2
28.9 nM	B3
3.6 nM	B4
1.9 nM	B5
8.48 nM	B6
0.375 nM	B7
2.92 nM	B8
10 nM	B9
1.32 nM	B10
0.647 nM	B11

Target: T2, rat APJ receptor (rat, UniProt Q9JHG3 1-377)
T2 sequence (looked up): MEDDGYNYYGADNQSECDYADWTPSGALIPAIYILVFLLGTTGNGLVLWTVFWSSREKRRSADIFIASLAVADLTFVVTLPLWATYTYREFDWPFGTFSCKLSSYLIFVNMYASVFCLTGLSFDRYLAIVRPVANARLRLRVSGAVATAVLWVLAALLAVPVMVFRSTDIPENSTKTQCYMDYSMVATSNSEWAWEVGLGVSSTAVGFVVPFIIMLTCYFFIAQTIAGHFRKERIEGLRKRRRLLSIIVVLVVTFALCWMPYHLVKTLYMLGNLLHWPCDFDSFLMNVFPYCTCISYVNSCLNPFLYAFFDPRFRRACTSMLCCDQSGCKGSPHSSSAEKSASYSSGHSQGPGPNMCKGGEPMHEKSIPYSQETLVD
Experiment: cell-based or functional assay

EC50 Rat APJ Receptor	Binder
182 nM	B1
21.4 nM	B2
104 nM	B3
16.5 nM	B4
6.29 nM	B5
32.4 nM	B6
0.729 nM	B7
5.81 nM	B8
27.3 nM	B9
8.54 nM	B10
1.17 nM	B11
